Measurements from paper PMC5834491, “CryoEM structure of the human SLC4A4 sodium-coupled acid-base transporter NBCe1” (Nature Communications, 2018).

Target: the molecule itself
Experiment: cryo-EM structure; single-particle cryoEM of NBCe1-A (~0.4 mg/ml) in amphipol PMAL-C8, 20 mM Tris-HCl pH 7.5, 150 mM NaCl; C2 symmetry imposed; 3.9 Å

B1: Human N-terminally Strep(II)-tagged wild-type NBCe1-A (SLC4A4 sodium-bicarbonate cotransporter) (natural protein, UniProt Q9Y6R1-2 1-1035, looked up)
chain: MSTENVEGKPSNLGERGRARSSTFLRVVQPMFNHSIFTSAVSPAAERIRFILGEEDDSPAPPQLFTELDELLAVDGQEMEWKETARWIKFEEKVEQGGERWSKPHVATLSLHSLFELRTCMEKGSIMLDREASSLPQLVEMIVDHQIETGLLKPELKDKVTYTLLRKHRHQTKKSNLRSLADIGKTVSSASRMFTNPDNGSPAMTHRNLTSSSLNDISDKPEKDQLKNKFMKKLPRDAEASNVLVGEVDFLDTPFIAFVRLQQAVMLGALTEVPVPTRFLFILLGPKGKAKSYHEIGRAIATLMSDEVFHDIAYKAKDRHDLIAGIDEFLDEVIVLPPGEWDPAIRIEPPKSLPSSDKRKNMYSGGENVQMNGDTPHDGGHGGGGHGDCEELQRTGRFCGGLIKDIKRKAPFFASDFYDALNIQALSAILFIYLATVTNAITFGGLLGDATDNMQGVLESFLGTAVSGAIFCLFAGQPLTILSSTGPVLVFERLLFNFSKDNNFDYLEFRLWIGLWSAFLCLILVATDASFLVQYFTRFTEEGFSSLISFIFIYDAFKKMIKLADYYPINSNFKVGYNTLFSCTCVPPDPANISISNDTTLAPEYLPTMSSTDMYHNTTFDWAFLSKKECSKYGGNLVGNNCNFVPDITLMSFILFLGTYTSSMALKKFKTSPYFPTTARKLISDFAIILSILIFCVIDALVGVDTPKLIVPSEFKPTSPNRGWFVPPFGENPWWVCLAAAIPALLVTILIFMDQQITAVIVNRKEHKLKKGAGYHLDLFWVAILMVICSLMALPWYVAATVISIAHIDSLKMETETSAPGEQPKFLGVREQRVTGTLVFILTGLSVFMAPILKFIPMPVLYGVFLYMGVASLNGVQFMDRLKLLLMPLKHQPDFIYLRHVPLRRVHLFTFLQVLCLALLWILKSTVAAIIFPVMILALVAVRKGMDYLFSQHDLSFLDDVIPEKDKKKKEDEKKKKKKKGSLDSDNDDSDCPYSEKVPSIKIPMDIMEQQPFLSDSKPSDRERSPTFLERHTSC
notes: Electrogenic sodium bicarbonate cotransporter 1, NBCe1-A variant, human, full length; Only the membrane domain was modelled (474 residues per protomer); Met1-Gly400, Cys583-Leu637, Ser713-Trp734, Glu814-Lys825 and Asp966-Cys1035 were not modelled. numbers count on: the NBCe1-A isoform (1035 residues); Homodimer in amphipol PMAL-C8; The pTT vector is named (Addgene), no plasmid number is printed; …
For B1, which “stoichiometry N” value is on record?
Its value is 2.
